According to publication PMC10218266, “Unveiling CD59-Antibody Interactions to Design Paratope-Mimicking Peptides for Complement Modulation” (International Journal of Molecular Sciences, 2023):
Starred links: 1 amine or outer side, 2 acyl side, 3 side chain; linkers in the order of their positions; H or OH if unused. Positions of bridges follow the written chain, without caps; N, C: chain ends. Residues, ends and D or L forms follow the SMILES beside them. TBMB = c1c(C[*:1])cc(C[*:3])cc1C[*:2]

T1: recombinant human CD59 (Homo sapiens, UniProt P13987)
T1 construct: purchased Abcam ab134887
T1 sequence (P13987 26-128): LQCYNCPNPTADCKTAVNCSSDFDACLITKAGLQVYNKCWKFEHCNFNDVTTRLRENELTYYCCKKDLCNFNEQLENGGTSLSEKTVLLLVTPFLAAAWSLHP

T2: human recombinant CD59 protein (human, UniProt P13987 26-99)
T2 construct: CD59, human, recombinant commercial product (Abcam ab134887); also called commercial CD59 (ab134887); source: bought: Abcam (ab134887), recombinant
T2 sequence: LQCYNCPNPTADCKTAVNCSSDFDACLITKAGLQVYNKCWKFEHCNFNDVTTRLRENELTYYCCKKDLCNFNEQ


What was measured:
recombinant human CD59 [1] = biological target: T1, recombinant human CD59; experiment: Surface Plasmon Resonance (SPR) direct binding assay; conditions: for kon: CD59 on CM5 chip, HBS-EP, 25 °C, 1:1 fit, average over tested peptide concentrations, read-out: ka
Procedure: (§1) The bicyclic peptides were tested for their ability to bind to recombinant human CD59. Direct binding assays were performed both using Surface Plasmon Resonance (SPR) and Biolayer Interferometry (BLI) label-free techniques (Figure 5). In both cases, after immobilisation of the protein on the sensor chips, the peptides were tested at increasing concentrations between 2.5 µM and 50 µM. […] Binding experiments were next repeated using BLI to confirm the recognition.
Assessment of binding kinetics and affinity between pm59 peptides and CD59 was performed at 25 °C using standard protocols on a BIACORE 3000 system (GE Healthcare, Little Chalfont, UK) with a research-grade CM5 (Carboxymethyl dextran) sensor chip and using commercial CD59 (ab134887) obtained from Abcam (Cambridge, UK). After chip preparation according to the manufacturer’s guidelines and surface activation, CD59 was immobilised onto the chip at a density of 4000 RU (0.5 mg/mL in 10 μL/min) on a NaAc buffer at pH 4.5. Bovine serum albumin (BSA) was immobilised on flow cell 2 to serve as reference. All surfaces were blocked with a 7′ injection of 1 M ethanolamine at pH 8.5.
The bicyclic acetylated CD59-targeting peptides were diluted in HBS-EP buffer (GE Healthcare, Little Chalfont, UK) and injected over the flow cells at a flow rate of 30 μL/min and concentrations ranging from 1 μM to 30 μM. Association of the complexes was allowed for 120 s and dissociation for 240 s. Regeneration of the surfaces was obtained by the sequential injection of 5 mM NaOH pulses (10 μL/min) until the established baseline was reached. Kinetics and binding data were fitted to a 1:1 stoichiometric interaction model using the global data analysis of the BIAevaluation software (GE Healthcare, Little Chalfont, UK) and Graphpad (Graphpad software, San Diego, CA, USA).

recombinant human CD59 [2] = biological target: T1, recombinant human CD59; experiment: Biolayer Interferometry (BLI) direct binding assay; conditions: for kon / koff: CD59 on AR2G sensor, Kinetic Buffer, 1:1 fit; for kon: read-out: ka; for koff: read-out: kdis
Procedure: as §1
The BLI technique was used to assess the binding of the peptides towards the human recombinant CD59 protein (Abcam code ab134887). The protein was efficiently immobilized at 15 μg/mL in 10 mM NaAc at pH 4.5 on a AR2G sensor chip (Sartorius) according to the manufacturer’s instructions. An unmodified sensor chip was used as blank. The peptides were tested at increasing concentrations from 5 µM to 50 µM dissolved in Kinetic Buffer (PBS containing 0.02% Tween20, 0.1% BSA, 0.05% sodium azide) and using the same running buffer. All analyses were carried out at 25 °C; 10 mM NaOH was used to regenerate the chip surface. All mathematical manipulations were performed using the Octet Analysis Studio 12.2 software from Sartorius. Data were fitted assuming a 1:1 Langmuir binding model determining the KDs by the global analysis mode. Binding curves were exported and charted using GraphPad software, vers. 5.

[3] = biological target: T2, human recombinant CD59 protein; experiment: SPR; CD59 immobilised on a CM5 chip (4000 RU, NaAc buffer pH 4.5), BSA on the reference flow cell; peptides in HBS-EP injected at 30 μL/min, 25 °C, BIACORE 3000; 1:1 Langmuir model; conditions: both partners purified
[4] = biological target: T2, human recombinant CD59 protein; experiment: BLI; CD59 immobilised at 15 μg/mL in 10 mM NaAc pH 4.5 on an AR2G sensor; peptides 5 µM to 50 µM in Kinetic Buffer (PBS, 0.02% Tween20, 0.1% BSA, 0.05% sodium azide), 25 °C; 1:1 Langmuir model; conditions: both partners purified
[5] = 25 °C, average over tested peptide concentrations

kon (recombinant human CD59 [1])	kon (recombinant human CD59 [2]; [5])	koff (recombinant human CD59 [2]; [5])	KD at 5 μM [3]	KD at 10 μM [3]	KD at 20 μM [3]	KD at 30 μM [3]	Kd [3]	ka at 5 μM [3]	ka at 10 μM [3]	ka at 20 μM [3]	ka at 30 μM [3]	kd at 5 μM [3]	kd at 10 μM [3]	kd at 20 μM [3]	kd at 30 μM [3]	koff [3]	KD at 10 μM [4]	KD at 20 μM [4]	KD at 30 μM [4]	Molecule	further results
2930 M⁻¹ s⁻¹	463 M⁻¹ s⁻¹	0.00268 s⁻¹																		CC(=O)N[C@H]1CSCc2cc3cc(c2)CSC[C@H](NC(=O)[C@H](CC(C)C)NC(=O)[C@H](Cc2ccc(O)cc2)NC(=O)[C@H](CCCCN)NC(=O)[C@H](CC(N)=O)NC1=O)C(=O)N[C@@H](CCC(N)=O)C(=O)N[C@@H](Cc1ccc(O)cc1)C(=O)N[C@@H](Cc1ccc(O)cc1)C(=O)N[C@@H](CO)C(=O)N[C@@H]([C@@H](C)O)C(=O)N[C@H](C(N)=O)CSC3 [pm59sh] (Ac-CNKYLCQYYSTC-NH2; linker 1-6-12 via TBMB)	
			0.469 µM	1.64 µM	2.61 µM	4.46 µM	2.42 µM	7260 M⁻¹ s⁻¹	3010 M⁻¹ s⁻¹	1560 M⁻¹ s⁻¹	1230 M⁻¹ s⁻¹	0.0034 s⁻¹	0.00493 s⁻¹	0.00408 s⁻¹	0.00548 s⁻¹	0.00469 s⁻¹	4.98 µM	9.92 µM	8.45 µM	Ac-CNKYLCQYYSTC-NH2 (linker 1-6-12 via TBMB; SMILES CC(=O)N[C@H]1CSCc2cc3cc(c2)CSC[C@H](NC(=O)[C@H](CC(C)C)NC(=O)[C@H](Cc2ccc(O)cc2)NC(=O)[C@H](CCCCN)NC(=O)[C@H](CC(N)=O)NC1=O)C(=O)N[C@@H](CCC(N)=O)C(=O)N[C@@H](Cc1ccc(O)cc1)C(=O)N[C@@H](Cc1ccc(O)cc1)C(=O)N[C@@H](CO)C(=O)N[C@@H]([C@@H](C)O)C(=O)N[C@H](C(N)=O)CSC3, designed from key residues of the CDR1 and CDR3 loops of the VL chain of the scFv MB59, flanking residues changed to cysteines; also called short version of pm59; source: synthetic peptide (Fmoc solid phase, bi-cyclised with TBMB, RP-HPLC purified)) [pm59sh, bicyclic paratope-mimicking peptide (short version)]	KD at 7.5 μM [3]: 1.24 µM; KD at 15 μM [3]: 2.39 µM; KD at 25 μM [3]: 4.13 µM; ka at 7.5 μM [3]: 4210 M⁻¹ s⁻¹; ka at 15 μM [3]: 2050 M⁻¹ s⁻¹; ka at 25 μM [3]: 1160 M⁻¹ s⁻¹; kd at 7.5 μM [3]: 0.00523 s⁻¹; kd at 15 μM [3]: 0.0049 s⁻¹; kd at 25 μM [3]: 0.00481 s⁻¹; KD at 5 μM [4]: 0.865 µM; KD at 40 μM [4]: 15 µM; KD at 50 μM [4]: 15.9 µM; Kd [4]: 9.18 µM; ka at 5 μM [4]: 1130 M⁻¹ s⁻¹; ka at 10 μM [4]: 524 M⁻¹ s⁻¹; ka at 20 μM [4]: 294 M⁻¹ s⁻¹; ka at 30 μM [4]: 451 M⁻¹ s⁻¹; ka at 40 μM [4]: 197 M⁻¹ s⁻¹; ka at 50 μM [4]: 178 M⁻¹ s⁻¹

The next lines start with the molecule.

Molecule	kon (recombinant human CD59 [1])	kon (recombinant human CD59 [2]; [5])	koff (recombinant human CD59 [2]; [5])	KD at 5 μM [3]	KD at 10 μM [3]	KD at 20 μM [3]	KD at 30 μM [3]	Kd [3]	ka at 5 μM [3]	ka at 10 μM [3]	ka at 20 μM [3]	ka at 30 μM [3]	kd at 5 μM [3]	kd at 10 μM [3]	kd at 20 μM [3]	kd at 30 μM [3]	koff [3]	KD at 10 μM [4]	KD at 20 μM [4]	KD at 30 μM [4]	further results
CC(=O)N[C@H]1CSCc2cc3cc(c2)CSC[C@H](NC(=O)[C@H](CC(C)C)NC(=O)[C@H](Cc2ccc(O)cc2)NC(=O)[C@H](CCCCN)NC(=O)[C@H](CC(N)=O)NC(=O)[C@H](CC(N)=O)NC1=O)C(=O)N[C@@H](CCC(N)=O)C(=O)N[C@@H](Cc1ccc(O)cc1)C(=O)N[C@@H](Cc1ccc(O)cc1)C(=O)N[C@@H](CO)C(=O)N[C@@H]([C@@H](C)O)C(=O)N1CCC[C@H]1C(=O)N[C@H](C(N)=O)CSC3 [pm59md] (Ac-CNNKYLCQYYSTPC-NH2; linker 1-7-14 via TBMB)	2930 M⁻¹ s⁻¹	919 M⁻¹ s⁻¹	0.00333 s⁻¹																		Kd (recombinant human CD59 [2]; OCTET R8, CD59 immobilised on AR2G sensor, Kinetic Buffer (PBS, 0.02% Tween20, 0.1% BSA, 0.05% sodium azide), 25 °C, 1:1 Langmuir fit, average over tested peptide concentrations): 4.39 µM
Ac-CNNKYLACQQYYSTPC-NH2 (also: bicyclic or more (positions not given here)) [pm59ln, long bicyclic paratope-mimicking peptide of MB59 VL CDR1/CDR3, three cysteines linked by TBMB, N-acetylated, C-amidated]																					binding to CD59 (in words) (recombinant human CD59 [1]; immobilised CD59, peptide at increasing concentrations between 2.5 µM and 50 µM (Figure 5E)): No significant binding; binding to CD59 (in words) (recombinant human CD59 [2]; immobilised CD59, peptide at increasing concentrations between 2.5 µM and 50 µM (Figure 5F)): No significant binding
Ac-CNNKYLCQYYSTPC-NH2 (linker 1-7-14 via TBMB; SMILES CC(=O)N[C@H]1CSCc2cc3cc(c2)CSC[C@H](NC(=O)[C@H](CC(C)C)NC(=O)[C@H](Cc2ccc(O)cc2)NC(=O)[C@H](CCCCN)NC(=O)[C@H](CC(N)=O)NC(=O)[C@H](CC(N)=O)NC1=O)C(=O)N[C@@H](CCC(N)=O)C(=O)N[C@@H](Cc1ccc(O)cc1)C(=O)N[C@@H](Cc1ccc(O)cc1)C(=O)N[C@@H](CO)C(=O)N[C@@H]([C@@H](C)O)C(=O)N1CCC[C@H]1C(=O)N[C@H](C(N)=O)CSC3, designed from key residues of the CDR1 and CDR3 loops of the VL chain of the scFv MB59, flanking residues changed to cysteines; also called medium version of pm59; source: synthetic peptide (Fmoc solid phase, bi-cyclised with TBMB, RP-HPLC purified)) [pm59md, bicyclic paratope-mimicking peptide (medium version)]				0.902 µM	1.09 µM	3.1 µM	4.39 µM	3.13 µM	7080 M⁻¹ s⁻¹	4830 M⁻¹ s⁻¹	2290 M⁻¹ s⁻¹	1270 M⁻¹ s⁻¹	0.00638 s⁻¹	0.00526 s⁻¹	0.0071 s⁻¹	0.00627 s⁻¹	0.00582 s⁻¹	1.23 µM	4.12 µM	6.09 µM	KD at 2.5 μM [3]: 1.38 µM; KD at 40 μM [3]: 3.88 µM; KD at 50 μM [3]: 4.9 µM; ka at 2.5 μM [3]: 5960 M⁻¹ s⁻¹; ka at 40 μM [3]: 1320 M⁻¹ s⁻¹; ka at 50 μM [3]: 980 M⁻¹ s⁻¹; kd at 2.5 μM [3]: 0.00814 s⁻¹; kd at 40 μM [3]: 0.00511 s⁻¹; kd at 50 μM [3]: 0.0048 s⁻¹; KD at 25 μM [4]: 6.52 µM; KD at 40 μM [4]: 8.38 µM; ka at 5 μM [4]: 963 M⁻¹ s⁻¹; ka at 10 μM [4]: 1560 M⁻¹ s⁻¹; ka at 20 μM [4]: 889 M⁻¹ s⁻¹; ka at 25 μM [4]: 783 M⁻¹ s⁻¹; ka at 30 μM [4]: 750 M⁻¹ s⁻¹; ka at 40 μM [4]: 564 M⁻¹ s⁻¹
